Here are results for one substance from paper PMC8229911.

The target in this test is Lrp transcriptional regulator from Haloferax mediterranei (HFX_RS01210) (Haloferax mediterranei). In words: SEC; Superose6 Increase 10/300 GL, 50 mM Tris-HCl pH 8.0, 150 mM NaCl; molecular mass estimated against standard proteins of 6.5 to 660 kDa in the same buffer.

The term stoichiometry N denotes a count of units in the complex or per binding partner. Regarding “Lrp transcriptional regulator from Haloferax mediterranei (HFX_RS01210) (natural protein)”, the stoichiometry N is 4.
